Experimental findings from patent publication US20100092488A1 are described below.

The target of this assay is T1, MK (endogenous, in the culture of CD4-positive T cells from wild-type murine spleens with APC) (UniProt P12025).
T1 sequence (looked up): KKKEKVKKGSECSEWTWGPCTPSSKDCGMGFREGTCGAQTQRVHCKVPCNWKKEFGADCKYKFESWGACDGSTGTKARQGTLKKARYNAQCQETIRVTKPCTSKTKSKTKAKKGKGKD
Description: cell-based or functional assay.

B1: anti-MK antibody (IP-13) (antibody, from another filing, V domains shown)
VH: EVQLQQSGPELVKPGASVKIPCKASGYTFTDYNMGWVKQSHGKSLEWIGDINPNNGGTIYNQKFKGKATLTVDKSSSTAYMELRSLTSEDTAVYYCARWSYSNPYFDYWGQGTTLTVSS
VL: SIVMTQTPNFLLVSAGDRVTITCKASQSVSNDVSWYQQKPGQSPKLLIYYASNLYTGVPDRFTGSGYGTDFTFTISTVQAEDLAVYFCQQDYSSPWTFGGGTKLEIK
Molecule B1 gave a proportion of CD4-positive, CD25-positive T cells among the CD4-positive T cells (flow cytometer; IP-13 30 µg/mL, MOG35-55 and APC, five days) of 4%.
